This note sets out measurements from patent US20250352661A1 (MYTHIC THERAPEUTICS, published 2025).

In assay [1] the target is T1, Human LRRC15 Protein, His Tag (Acro Biosystems) (human, UniProt Q8TF66 22-538, limits assumed).
T1 construct: not shown: His tag
T1 sequence (looked up): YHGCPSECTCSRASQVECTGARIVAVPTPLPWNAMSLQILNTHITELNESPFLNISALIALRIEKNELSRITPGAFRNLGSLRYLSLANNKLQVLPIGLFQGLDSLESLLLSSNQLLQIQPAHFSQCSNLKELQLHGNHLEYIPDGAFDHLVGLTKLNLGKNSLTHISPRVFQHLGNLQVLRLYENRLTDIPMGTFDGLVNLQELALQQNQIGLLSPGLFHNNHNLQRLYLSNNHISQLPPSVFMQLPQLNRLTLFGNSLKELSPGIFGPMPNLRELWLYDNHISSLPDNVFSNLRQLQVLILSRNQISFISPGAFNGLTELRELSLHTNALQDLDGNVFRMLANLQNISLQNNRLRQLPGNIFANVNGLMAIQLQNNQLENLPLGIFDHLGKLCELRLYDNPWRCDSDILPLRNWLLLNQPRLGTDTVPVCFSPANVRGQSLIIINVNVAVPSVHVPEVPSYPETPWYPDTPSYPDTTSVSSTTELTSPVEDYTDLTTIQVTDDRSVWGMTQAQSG
In words: BLI; dissociation pH 7.4 black, pH 5.4 grey [2/2); D00020 FIG. 4B (2/2]. The protocol: Desirable mutations were transferred to a humanized framework (humanized, MYT 8387-8411). After allowing for four days of protein expression, cell culture supernatants were collected, quantified by SDS-PAGE analysis, and the pH dependence of the variant was evaluated using biolayer interferometry (BLI) on an Octet RED 96e instrument. Briefly, cell culture supernatants were diluted based on qualitative expression level of the variant determined by visual examination of SDS-PAGE gels, 5 μL of cell culture supernatant was diluted into 195 μL of 1×PBST, pH 7.4 for high expressors, 25 μL of cell culture supernatant was diluted into 175 μL of 1×PBST, pH 7.4 for medium expressors and 100 μL of cell culture supernatant was diluted into 100 μL of 1×PBST, pH 7.4 for low expressors for loading onto the sensor tips. The resulting diluted supernatants were then captured on an anti-human Fc sensor (Forte Bio). A baseline was established using 1×PBST (50 mM Potassium Phosphate Buffer+150 mM NaCl+0.05% Tween 20) pH 7.4, and the […] was associated with 50 nM of LRRC15 (Human LRRC15 Protein, His Tag, Acro Biosystems) in 1×PBST pH 7.4 for 120 sec to generate an association curve. In the dissociation phase, the antibody-antigen complex on the sensor was exposed to 1×PBST pH 7.4 or pH 5.4, for 300 sec. Association and dissociation phase curves were examined for the starting ABPC antibody (with no substitutions) and each corresponding antibody variant at pH 5.4 and pH 7.4 to inform on two criteria: a) enhanced dissociation (i.e., higher koff values) at pH 5.4 due to histidine substitution compared to the starting ABPC, (with no substitutions), and b) reduced dissociation at pH 7.4 (i.e., lower koff values) compared to pH 5.4 in the antibody variant itself and with the starting ABPC (with no substitutions).
The methods of Examples 9-10 were applied to RabMAb clone 29F1 (rabbit VH SEQ ID NO: 572 and VL SEQ ID NO: 578; and humanized VH SEQ ID NO: 576 and VL SEQ ID NO: 582).

The target of assay [2] is T2, LRRC15 on the surface of LRRC15+ cells (SAOS-2, U87MG) (UniProt Q8TF66 22-581, limits assumed).
T2 sequence (looked up): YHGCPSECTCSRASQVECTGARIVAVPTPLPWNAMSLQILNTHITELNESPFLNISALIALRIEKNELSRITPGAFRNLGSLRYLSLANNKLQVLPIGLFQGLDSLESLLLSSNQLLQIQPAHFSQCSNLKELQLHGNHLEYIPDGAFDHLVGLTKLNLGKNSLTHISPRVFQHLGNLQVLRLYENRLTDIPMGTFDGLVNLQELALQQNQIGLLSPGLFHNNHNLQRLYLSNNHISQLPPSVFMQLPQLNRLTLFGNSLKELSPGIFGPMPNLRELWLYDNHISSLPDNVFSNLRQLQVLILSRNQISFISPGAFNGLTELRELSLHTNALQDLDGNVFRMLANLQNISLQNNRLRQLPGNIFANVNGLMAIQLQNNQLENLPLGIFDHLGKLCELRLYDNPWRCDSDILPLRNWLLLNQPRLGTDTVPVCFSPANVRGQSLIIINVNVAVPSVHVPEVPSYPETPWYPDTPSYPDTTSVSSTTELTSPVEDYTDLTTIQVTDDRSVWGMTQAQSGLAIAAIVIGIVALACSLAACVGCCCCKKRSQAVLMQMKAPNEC
The assay can be described thus: cell-based or functional assay.

Assay [3] addresses T3, LRRC15 on LRRC15 positive cell lines SAOS2 and G292 (UniProt Q8TF66 22-581, limits assumed).
T3 construct: whole, on cells
T3 sequence (looked up): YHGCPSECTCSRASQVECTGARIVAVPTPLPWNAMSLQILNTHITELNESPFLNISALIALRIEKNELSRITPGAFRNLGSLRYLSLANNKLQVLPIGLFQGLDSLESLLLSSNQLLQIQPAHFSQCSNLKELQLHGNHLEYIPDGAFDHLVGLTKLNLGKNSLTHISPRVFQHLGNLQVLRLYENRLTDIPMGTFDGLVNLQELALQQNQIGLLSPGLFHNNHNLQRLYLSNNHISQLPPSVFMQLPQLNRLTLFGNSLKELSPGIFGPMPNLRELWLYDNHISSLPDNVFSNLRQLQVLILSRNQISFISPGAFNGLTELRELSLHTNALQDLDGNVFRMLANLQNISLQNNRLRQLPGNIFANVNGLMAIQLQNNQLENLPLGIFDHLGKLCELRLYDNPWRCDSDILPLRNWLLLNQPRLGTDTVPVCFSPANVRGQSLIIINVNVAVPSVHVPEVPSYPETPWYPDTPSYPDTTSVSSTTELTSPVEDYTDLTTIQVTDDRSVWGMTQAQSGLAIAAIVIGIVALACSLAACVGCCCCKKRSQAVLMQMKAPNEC
In words: cell binding on G292 cells (LRRC15 positive), pH 6.4.

Assay [4] addresses T3, LRRC15 on LRRC15 positive cell lines …. The assay can be described thus: cell binding on G292 cells (LRRC15 positive), pH 7.4. More on the design: unit not given here.
The target is the same in assay [5]. In words: cell binding on SAOS2 cells (LRRC15 positive), pH 6.4.
Assay [6] has the same target. The assay can be described thus: cell binding on SAOS2 cells (LRRC15 positive), pH 7.4. Further details: unit not given here.
In assay [7] the target is T1, Human LRRC15 Protein, His Tag (Acro …). In words: BLI (Octet), Ab on anti-human Fc sensor, LRRC15 associated at pH 7.4. The protocol:
For each individual plot, antigen binding proteins were captured on anti-human Fc biosensors and associated with LRRC15 at pH 7.4. Dissociation was at pH 7.4 (black) or pH 5.4 (grey). Major X-axis ticks=100 seconds, with left dashed vertical line=0 seconds. Major Y-axis ticks=0.5 nm and octet plots are shown MYT5712 and MYT6080-MYT6121.
After allowing for a period of protein expression, cell culture supernatants are collected, quantified, and the pH dependence of the variant is evaluated using biolayer interferometry (BLI) or other methods known to the art. Briefly, cell culture supernatants are normalized to an antibody expression level of 50 μg/mL, and captured on an anti-human Fc sensor (Forte Bio). A baseline is established using 1× kinetics buffer (Forte Bio), and the sensor is associated with 100 nM of LRRC15 in 1×PBS at pH 7.4 for 300 sec to generate an association curve. In the dissociation phase, the antibody-antigen complex on the sensor is exposed to 1×PBS at either pH 5.5 or pH 7.4 for 300-500 sec. […]

B1: MYT9496 (antibody, V domains shown)
VH: EVQLVESGGGLVQPGGSLRLSCTASGFSFSSSHWICWVRQAPGKGLEWVGCIYAGSIGSTYYASWAKGRFTISRDTSKNTVYLQMNSLRAEDTAVYYCARADNDIYNYYFNLWGQGTLVTVSS
VL: EIVMTQSPSTLSASVGDRVIITCQASENIYNYLAWYQQKPGKAPKLLIYYASTLASGVPSRFSGSGSGAEFTLTISSLQPDDFATYYCQSGYVSKSSTFGQGTKLTVL
notes: also called hu29F1 VH P102D
On to B1, for which the binding result in assay [1] is recorded as “binds”.

B2: MYT9498 (antibody, V domains shown)
VH: EVQLVESGGGLVQPGGSLRLSCTASGFSFSSSHWICWVRQAPGKGLEWVGCIYAGSIGSTYYASWAKGRFTISRDTSKNTVYLQMNSLRAEDTAVYYCARAPNAIYNYYFNLWGQGTLVTVSS
VL: EIVMTQSPSTLSASVGDRVIITCQASENIYNYLAWYQQKPGKAPKLLIYYASTLASGVPSRFSGSGSGAEFTLTISSLQPDDFATYYCQSGYVSKSSTFGQGTKLTVL
notes: also called hu29F1 VH D104A
As for B2, the binding result in assay [1] is reported as “binds”.

B3: MYT9505 (antibody, V domains shown)
VH: EVQLVESGGGLVQPGGSLRLSCTASGFSFSSSHWICWVRQAPGKGLEWVGCIYAGSIGSTYYASWAKGRFTISRDTSKNTVYLQMNSLRAEDTAVYYCARAPNDIYNYYFDLWGQGTLVTVSS
VL: EIVMTQSPSTLSASVGDRVIITCQASENIYNYLAWYQQKPGKAPKLLIYYASTLASGVPSRFSGSGSGAEFTLTISSLQPDDFATYYCQSGYVSKSSTFGQGTKLTVL
notes: also called hu29F1 VH N111D
Turning to B3, in assay [1], the binding result was “binds”.

B4: MYT9506 (antibody, V domains shown)
VH: EVQLVESGGGLVQPGGSLRLSCTASGFSFSSSHWICWVRQAPGKGLEWVGCIYAGSIGSTYYASWAKGRFTISRDTSKNTVYLQMNSLRAEDTAVYYCARAPNDIYNYYFNDWGQGTLVTVSS
VL: EIVMTQSPSTLSASVGDRVIITCQASENIYNYLAWYQQKPGKAPKLLIYYASTLASGVPSRFSGSGSGAEFTLTISSLQPDDFATYYCQSGYVSKSSTFGQGTKLTVL
notes: also called hu29F1 VH L112D
Take B4: in assay [1], the binding result is on record as “binds”.

B5: Samrotamab V205C ADC (antibody, part only; not given: V205C light chain and payload, V domains shown, part only)
VH: EVQLVQSGAEVKKPGASVKVSCKASGYKFSSYWIEWVKQAPGQGLEWIGEILPGSDTTNYNEKFKDRATFTSDTSINTAYMELSRLRSDDTAVYYCARDRGNYRAWFGYWGQGTLVTVSS
In assay [2], B5 came in with a 20 nM Efficacy (cytotoxicity of candidates against SAOS-2 cells) of 16.4.

B6: MYT5438, samrotamab ADC, Hinge Conjugated, DAR 2.0 (antibody, V domains shown)
VH: EVQLVQSGAEVKKPGASVKVSCKASGYKFSSYWIEWVKQAPGQGLEWIGEILPGSDTTNYNEKFKDRATFTSDTSINTAYMELSRLRSDDTAVYYCARDRGNYRAWFGYWGQGTLVTVSS
VL: DIQMTQSPSSLSASVGDRVTITCRASQDISNYLNWYQQKPGGAVKFLIYYTSRLHSGVPSRFSGSGSGTDYTLTISSLQPEDFATYFCQQGEALPWTFGGGTKVEIK
modifications: ADC: payload conjugated at the hinge, DAR 2.0 (payload not given) ; ADC: payload conjugated at hinge cysteines, DAR 2.0. The letters do not carry it.
notes: also called Sam; ADC, Hinge (DAR 2.0); Samrotamab WT
For B6, the Affinity came to 0.187 in assay [3], 0.165 in assay [4], 0.336 in assay [5] and 0.31 in assay [6].

B7: MYT2737 (antibody, V domains shown)
VH: EVQLVQSGAEVKKPGASVKVSCKASGYKFSSYWIEWVKQAPGQGLEWIGEILPGSDTTNYNEKFKDRATFTSDTSINTAYMELSRLRSDDTAVYYCARDRGNYRAWFGYWGQGTLVTVSS
VL: DIQMTQSPSSLSASVGDRVTITCRASQDISNYLNWYQQKPGGAVKFLIYHTSRLHSGVPSRFSGSGSGTDYTLTISSLQPEDFATYFCQQGEALPWTFGGGTKVEIK
notes: also called Sam; LC His Variant; samrotamab LC His Var
On to B7, for which the Affinity came out at 0.676 in assay [3], 0.528 in assay [4], 0.92 in assay [5] and 0.84 in assay [6].

B8: MYT3315 (antibody, V domains shown)
VH: EVQLVESGGGLVQPGGSLRLSCAVSGFSLTSYGVHWVRQATGKGLEWLGVIWAGGSTNYNSALMSRLTISKENAKSSVYLQMNSLRAGDTAMYYCATHMITEDYYGMDYWGQGTTVTVSS
VL: DIVMTQSPDSLAVSLGERATINCKSSQSLLNSRTRKNYLAWYQQKPGQSPKLLIYWASTRHSGVPDRFSGSGSGTDFTLTISSLQAEDVAVYYCKQSYNLPTFGGGTKVEIK
notes: also called hu139.10 LC His Variant; hu139.10 LC His Var
B8: the Affinity came out at 0.251 in assay [3], 0.155 in assay [4], 0.398 in assay [5] and 0.296 in assay [6].

B9: MYT8511 (antibody, V domains shown)
VH: QQQLVESGGGLVKPGASLTLTCKASGHHFSGSYWICWVRQAPGKGLEWIGCHNGGSLDITYYASWAKGRFTISKASSTTVTLQKTSLTAADTATYFCASDTSYTAYGNFYFNLWGPGTLVTVSS
VL: AQVLTQTASPVSAAVGGTVTINCQSSQSVLNNNWLAWYQQKPGQPPKLLIYDASSLASGVPSRFKGSGSGTQFTLTISDLESDDAATYYCQGEFSCGSADCNAFGGGTEVVVKG
notes: Rabbit 24D9 VH combination variant; also called 24D9 VH combo F27H, S28H, I52H
Consider B9, for which, in assay [7], the binding result is recorded as “no binding (tested: 50 nM)”.
